Consider one molecule from PMC11995724.

This series concerns the target MiaA C273A (Shigella flexneri, UniProt P59197 1-316, C273A). The experiment in a line: EMSA (2% agarose); 10 mM Mg2+; 100 uM 10-F05; binding only slightly decreased, largely unaffected. The conditions noted are these: protein: recombinant; tags: N-terminal His-tag (pET28a); label: none (GelRed stain); predicted two hairpin loops.

With GUUCAAUUGGUAGAGCACCGGUCUCCAAAACCGG (structured_RNA) [tRNATrp_34-base], the binding result was “binds”.
